According to the DeepSol protein solubility set:

Assay: soluble on expression in E. coli; label from the status in PepcDB or PDB records

Sequence | soluble on expression in E. coli
EFPEITEEMEKEIKNVFRNGNQDEVLSEAFRLTITRKDIQTLNHLNWLNDEIINFYMNMLMERSKEKGLPSVHAFNTFFFTKLKTAGYQAVKRWTKKVDVFSVDILLVPIHLGVHWCLAVVDFRKKNITYYDSMGGINNEACRILLQYLKQESIDKKRKEFDTNGWQLFSKKSQEIPQQMNGSDCGMFACKYADCITKDRPINFTQQHMPYFRKRMVWEILHRKLL | soluble
MASWTLVDASAIAVRHPYTFYKPDAETIDRVAAGESVKLIFAFDTDNPDAPRAERLWVTVEGIEADGAFSGRLDNYPQYIRDLSLGERIVFEARHIINTEHDPRETPISRYARRCFVTRRVIDEGKAVGYLYREAPEEENDSGWRLMAGDESDDYMNTAGTTAYVSLGSVLNADDSILPLLDAPPGRAFERLADGSFIEVQGPEG | not soluble
MGSDKIHHHHHHMAISERDIEHIFERLRSGVVPERGLEAFAVGIDKQRTEIHRQFQLAANSEGVFKFLRGGYGCGKTFMSRLAILDAQAQGFATSFVVVSDNDLHFYKFDDVYRKVVQELGTSSCPRGALSDIIDRWIARVEDALIAGGADENSDEFDTLVQQRIEEELASLTGGKAPEDMARVLRAIFTFKQKGEIAEASALLSWLAGSENVAATAKKAAGIKGDIASRDALDYLHGILEIVKAAGYKGLVIVIDEVETVLRMRHDSRGKSLNGIRQICDAADRYRGLLWIYTGTPEFFDTKRGVAGLEPLHDRIQFLTLAGFANPRQPQLELKPFDARRLKEVALKLREIFPTANRTGIVNKVTFEFIERLVAKVTAGFKGDVGVVPRQFLRQFVNILDLASENDEFDPMSAEGFEPTDLNEVELLIREGRTYFDEDPADIQGYAAVEF | not soluble
MTPPPADDTSGKSGRRTELLDIAATLFAERGLRATTVRDIADAAGILSGSLYHHFDSKESMVDEILRGFLDDLFGKYREIVASGLDSRATLEALVTTSYEAIDASHSAVAIYQDEVKHLVANERFTYLSELNTEFRELWMGVLEAGVKDGSFRSDIDVELAFRFLRDTAWVAVRWYRPGGSVTVDTVAKQYLSIVLDGLASPHN | soluble
MSLAKKKEIKLEDALWKSADKLRKNIDAAEYKHIVLGLIFLRYISDSFMQKYEELLKEQDDGADPEDADEYLADNIFFVPEKSRYNYIRDNAKNPKIGKMLDEAMDEIEKHNDTLKGVLPKVYAKDNLDSKCLGELIDLIGNIAFDTGKSTDVLGHVFEYFLGEFALAEGKQGGQFYTPKCVVELLVTMLEPYKGRVFDPCCGSGGMFVQSEEFVKSHQGRLDDISIYGQESNQTTYKLAKMNLAIRKIESSQVIWNNEGSFLNDAHKDLKADFIIANPPFNDSDWSGELLENDGRWKYGVPPASNANYAWIQHFLYHLSPNGGVAGFVLAKGALTSNTTNEAAIRKALIEDDLIDCIVNLPAKLFLNTGIPASLWFIRRQKLPKTVKKTLFIDARDLGTRINRRNKTLNKDDINQIANIYKAWKNGTDYEDIKGFCKSVSIDEIRELSYVLTPGRYVGLADSDDEFDFDTRFNELLAKLKSQIKTEQELSEIILKNLEKIKEGHHHHHH | soluble
MNWHPAACKISAKGGYLRVIIDASNVAHSRKNDEEKPCIENILSAAEELEKLGYEPVIIADASLRHEIDDKEQFRKLLEEGKFQQVPSGTSADHFILKMAEEEDAKILSNDVFRDYKDEFQDINSRRIPYTFREDKILIGTSGKPKKVKNILQKICNEALREFERKRIDAYKVKRGKKLSGIAIAKEAIDRISRSQEEGLEPRLEGIFMKLPLFERFMSMVEEVERTSNYIIFVLVHPKDYRDAVKYAGNIAVTVGDRLKLEHAPLVAVRNDLFLKPGTFELNIMYSEDVMEEAPYNVNITINDHDYSFVKKNSRNIASTLAARIGSWRFPIVSVKPSMLLEKPGEFEVVLEKGGNDLEHHHHHH | soluble
MVDNLIKYIHKSDVAIVVLHEIYGINSFIEDVCQKYYKYGYDVFCPELLGEKRVFPYSKVQEAYDFFINNVGFDIYKKVEKLINDLKSEYKYVFVAGYSVGATIAWRCSEDSFCDGIICCYGSRIRDYMDVIPKCPTLLVFAKHDSFDVDSISCQLSRKQNIQIEILDANHGFIDRYSNNYSDIQTKVFTIKEKSFLSKCLA | not soluble
MRWTKEELDRYHRQMILPQVGPEGQERLKRASVVVVGAGGLGVPVLQYLVAARVGRVGVVEMDRVEVSDLHRQVLYTTEDVGEPKALVAQKRLQALNPLVRVEAYPVRLTSENALEILRPYDLVVDASDNFPTRYLVNDAAVLLGKPLVFGAIYQFDGQGTVFHHPTLHGEMGPCYRCLFPKPPPPGAVPSCAEAGVFGVLPAVVGSLMAAEALKVLLGIGKPLAGHLLLYDALEAGFRKLTVRRNPRCPVCGDEPTQRELVDYEAFCGLG | soluble
MKHWFNIALAALALSSATVQAATEVKVGMSGRYFPFTFVKQDELQGFEVDVWNEIGKRNDYKVEFVTANFSGLLGLLETGRIDTISNQITITDARKAKYLFSDPYVIDGAQITVRKGNEAIKGIDDLAGKTVAVNLGSNFEQLLRNHDKDGKINIKTYDTGIEHDVALGRADAFVMDRLSALELIEKTGLPLQLAGSPFETIENAWPFVNNEKGQQLQGEVNKALAAMRADGTLSQIALKWFGTDISQ | not soluble
RGKVFLEAQEKYEVNVIYLVSHALVETGNGKSELAKGIKDGKKRYYNFFGIGAFDSSAVRSGKSYAEKEQWTSPDKAIIGGAKFIRNEYFENNQLNLYQMRWNPENPAQHQYASDIRWADKIAKLMDKSYKQFGIKKDDIRQTYYK | not soluble
GSASKICQFKLVLLGESAVGKSSLVLRFVKGQFHEYQESTIGAAFLTQSVCLDDTTVKFEIWDTAGQERYHSLAPMYYRGAQAAIVVYDITNQETFARAKTWVKELQRQASPSIVIALAGNKADLANKRMVEYEEAQAYADDNSLLFMETSAKTAMNVNDLFLAIAKKLPKSEPQNLGG | soluble
MNQRLVYVVSDSGGETAELVVKAAASQFHASPIQVKRVPYVEDKTTLAEVVALAKMNRAIIAFTLVVPEMREFLLAEAAREGVVAYDIIGPLIEKMSHLFQLTPRYEPGQVRVLDEDYFKKIEAIEFAVKYDDGRDPRGILRADIVLIGVSRTSKTPLSQYLAHKRLKVANVPIVPEVEPPEQLFRVGPGKCFGLKISPDKLLSIRRERLKSLGLNDQAIYANMDRIKEELAYFDEVVKKIGCDVIDVTNKAVEETASIIMKKLKR | not soluble
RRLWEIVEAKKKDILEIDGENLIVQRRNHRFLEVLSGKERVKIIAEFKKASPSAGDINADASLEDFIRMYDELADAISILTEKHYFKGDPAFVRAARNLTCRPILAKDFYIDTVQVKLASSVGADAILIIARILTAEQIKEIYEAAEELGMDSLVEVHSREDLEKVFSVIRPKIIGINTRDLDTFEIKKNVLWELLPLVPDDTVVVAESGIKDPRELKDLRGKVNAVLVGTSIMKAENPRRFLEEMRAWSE | soluble
MGSDKIHHHHHHMNPEFIHGATEIETTNRGLRPHRLSKEIVERYCDPQFSAMERQPSGVRVVCRTTATSVTLTTYSTRVVYLDSGRPGGKIDVLIDGAPTSSTPTSGGETTEVNFITGATERRLKDPQVLTVDGLSEQEKVVEFWLPHNEEIEVISLKANAALNTVEDTRPVWINYGSSISHGSVATAPTKIWPAIVAQSKNYNLRNFGFGGSAMLDPFMARLIRDTPADLITLEIGINIVNGDVMRRRGLEAAVDGFINTIRDGHPTTPIKIVSPFYCPIHEKTPGPGAFDTSSFGSGQIRFIATGEPDEHGRLTLEMVREVLEGFVEKQKDPHLTYVDGASLYQASDAPLLDNLHPDEASHALIAQRLLKQL | not soluble
MSTLGHQYDNSLVSNAFGFLRLPMNFQPYDSDADWVITGVPFDMATSGRAGGRHGPAAIRQVSTNLAWEHNRFPWNFDMRERLNVVDCGDLVYAFGDAREMSEKLQAHAEKLLAAGKRMLSFGGDHFVTLPLLRAHAKHFGKMALVHFDAHTDTYANGCEFDHGTMFYTAPKEGLIDPNHSVQIGIRTEFDKDNGFTVLDACQVNDRSVDDVIAQVKQIVGDMPVYLTFDIDCLDPAFAPGTGTPVIGGLTSDRAIKLVRGLKDLNIVGMDVVEVAPAYDQSEITALAAATLALEMLYIQAAKKGE | soluble
YLYVYKGVYATDEDVPVNPLTGERLRMGGNTSTQAYFKAGDPIWVDVNGDYIIDEKDKVIVGNSQPRMTGGISINLRYKAFSINTNCSFTLRRDIINKALADRFRAYGTPVAGKVNLTGSGALTPIEAYNFWTEDNIYAQYPNPFDYTRSSIIQPFRYDQTLFMEDGSYFKINGISVAYTIPKKMLDFFRISRCQLNFSMNNIYTFSKYSGINPENVNNLGYDTSGGYPNGRTVTFGVSMDF | not soluble
MRTEGRLVRANLPLNLPSPTMRYMTPQRFGMGGTQIGNIFAPISDEQADLVLQAAWNAGVRLYDTSPFYGFGLSEYRLGRFLRGKDPADYVISTKVGRVLTAAGGARQDHAIWKSPAPFNYRYDYTAAGARRSVEDSLQRLGLPRIDIVFIHDLSPDNTELEGGWEAAYRIARTGAMVELEKMRDEGLIKAWGFGVNTPNAVVQAMGSDDPTPDIVLLACQYSLIDHSEALRNTFPALHRKGTSVVVGTPLNDGFLGGRNRYNFSLELPAGAVEKRKRIMAVAARHGIDIHTAALQFAAAHPQVSAIIPGARSPGQVMSNVQAMKVGIPAAFWAELKSQSLMDAQAPVPS | not soluble
IHVNSKEEAIISLVDVVSKEGYLIDKNQFLKDVLKREETLSTYIGHGIGLPHSQSVGVKNSCITIGKLDTPIEWTEEGEKVDLIFLISVTKDNENNLHLKILSKLARLLMHESFRNQIRCSDEQTVYNLIKEKIEE | not soluble
MSFSENRRIALVTLVVDNYDRAKAFYCDVLGFECLSDKPLDDGKRWVVVKPQGAEGGALLLAEADGEQQRLAIGNQTGGRVGFFLHTDDFARDYETMIARGVHFLEEPRHEVYGSVAVFADPYGNRWDLLQPRG | not soluble
MSLEAKVDKPRLNQEQAIAIAAVNSQQGFGCFLLEGVTGSGKTEVYLNLITPVLARGEQALVLVPEIGLTPQTINRFRQRFNVPVEVMHSALNDTERLNAWLAARDKVAGIVIGTRSALLTPFAKLGIIIVDEEHDSSYKQQDSLRYHARDVAVMRAHLENIPIVLGSATPALETLHNALSGKYHHLQLTQRAGNALPTRNHALDVKGLYLESGLSAPLIAEMRRHLSAGNQVMLFLNRRGFSPALMCHECGWIAECQRCDAYYTYHQHSNEMRCHHCGSQRPVLHQCKGCGSTQLVTVGVGTEQLEAQLHTLFPEYRSVRIDRDSTRRKGSLESALTAIRKGEYQILIGTQMLAKGHHFPDVTLVALLDVDGSLYSSDFRASERLAQLFIQVAGRAGRASKPGEVVLQTHHPEHSLLQALLHKDYHHFALTALEERKLAQLPPYSFLSLFRAEANHTAQVEDFLRQVRETLRCNPWFDSECMVLGPTPAPLAKRAGKFRWQLLLQTPNRTLMQKILQSARPALQQLPLASKVRWSIDIDPQDLSEGHHHHHH | not soluble
AHHHHHHGSARITEEQRRKLAQDALEYHRNNFPGNGKIEVIPKVPLRDFYDLSLAYTPGVAEPCKVIAKKGNYEDYTIIPNTVAVVTDGSAILGLGNIGVLAGMPVMEGKCVLFKALAGIDAFPILIDTQDVEKIVETIKLISKGFGGINLEDISAPRCFEIEMRLKRELDIPVFHDDQHGTAVVTLAGLINALKLVGKKFNEIKVAISGAGAAGIAIAKLLHHVGVKEILLVDRAGIIYEGRKENMNPYKEEVARFNIHGVQGDLAKAMEGADVFIGVSVGGIVKPWMIKKMADDPIVFAMANPIPEIMPEDAKKAGAKIVATGRSDYPNQINNVLGFPGIFRGALDVRATDITLNMNIAAAEAIASVVSDEELSEDYIIPSPLHPDVYPKEARAVAEQAIRDGVARRKLSGEWVEEHTRKLREFYAALIEPLNERRKQYIT | soluble
